Measurements reported in IntAct's records for PubMed 25910212.

B1: Regulator of G-protein signaling 2 (Homo sapiens), P41220 (parent)
chain: MQSAMFLAVQHDCRPMDKSAGSGHKSEEKREKMKRTLLKDWKTRLSYFLQNSSTPGKPKTGKKSKQQAFIKPSPEEAQLWSEAFDELLASKYGLAAFRAFLKSEFCEENIEFWLACEDFKKTKSPQKLSSKARKIYTDFIEKEAPKEINIDFQTKTLIAQNIQEATSGCFTTAQKRVYSLMENNSYPRFLESEFYQDLCKKPQITTEPHAT
B2: Beta-crystallin A4 (Homo sapiens), P53673 (parent)
chain: MTLQCTKSAGPWKMVVWDEDGFQGRRHEFTAECPSVLELGFETVRSLKVLSGAWVGFEHAGFQGQQYILERGEYPSWDAWGGNTAYPAERLTSFRPAACANHRDSRLTIFEQENFLGKKGELSDDYPSLQAMGWEGNEVGSFHVHSGAWVCSQFPGYRGFQYVLECDHHSGDYKHFREWGSHAPTFQVQSIRRIQQ
partner: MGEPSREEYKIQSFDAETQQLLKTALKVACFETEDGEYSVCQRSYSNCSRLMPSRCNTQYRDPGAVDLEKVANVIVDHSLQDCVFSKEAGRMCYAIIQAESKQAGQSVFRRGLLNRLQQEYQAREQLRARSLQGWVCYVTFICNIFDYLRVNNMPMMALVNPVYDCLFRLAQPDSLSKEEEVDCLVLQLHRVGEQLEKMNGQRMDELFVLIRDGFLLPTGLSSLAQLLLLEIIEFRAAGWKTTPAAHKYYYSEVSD
B3: Neutrophil cytosol factor 1 (Homo sapiens), P14598 (parent)
chain: MGDTFIRHIALLGFEKRFVPSQHYVYMFLVKWQDLSEKVVYRRFTEIYEFHKTLKEMFPIEAGAINPENRIIPHLPAPKWFDGQRAAENRQGTLTEYCSTLMSLPTKISRCPHLLDFFKVRPDDLKLPTDNQTKKPETYLMPKDGKSTATDITGPIILQTYRAIANYEKTSGSEMALSTGDVVEVVEKSESGWWFCQMKAKRGWIPASFLEPLDSPDETEDPEPNYAGEPYVAIKAYTAVEGDEVSLLEGEAVEVIHKLLDGWWVIRKDDVTGYFPSMYLQKSGQDVSQAQRQIKRGAPPRRSSIRNAHSIHQRSRKRLSQDAYRRNSVRFLQQRRRQARPGPQSPGSPLEEERQTQRSKPQPAVPPRPSADLILNRCSESTKRKLASAV
B4: U4/U6 small nuclear ribonucleoprotein Prp31 (Homo sapiens), Q8WWY3 (parent)
chain: MSLADELLADLEEAAEEEEGGSYGEEEEEPAIEDVQEETQLDLSGDSVKTIAKLWDSKMFAEIMMKIEEYISKQAKASEVMGPVEAAPEYRVIVDANNLTVEIENELNIIHKFIRDKYSKRFPELESLVPNALDYIRTVKELGNSLDKCKNNENLQQILTNATIMVVSVTASTTQGQQLSEEELERLEEACDMALELNASKHRIYEYVESRMSFIAPNLSIIIGASTAAKIMGVAGGLTNLSKMPACNIMLLGAQRKTLSGFSSTSVLPHTGYIYHSDIVQSLPPDLRRKAARLVAAKCTLAARVDSFHESTEGKVGYELKDEIERKFDKWQEPPPVKQVKPLPAPLDGQRKKRGGRRYRKMKERLGLTEIRKQANRMSFGEIEEDAYQEDLGFSLGHLGKSGSGRVRQTQVNEATKARISKTLQRTLQKQSVVYGGKSTIRDRSSGTASSVAFTPLQGLEIVNPQAAEKKVAEANQKYFSSMAEFLKVKGEKSGLMST
partner: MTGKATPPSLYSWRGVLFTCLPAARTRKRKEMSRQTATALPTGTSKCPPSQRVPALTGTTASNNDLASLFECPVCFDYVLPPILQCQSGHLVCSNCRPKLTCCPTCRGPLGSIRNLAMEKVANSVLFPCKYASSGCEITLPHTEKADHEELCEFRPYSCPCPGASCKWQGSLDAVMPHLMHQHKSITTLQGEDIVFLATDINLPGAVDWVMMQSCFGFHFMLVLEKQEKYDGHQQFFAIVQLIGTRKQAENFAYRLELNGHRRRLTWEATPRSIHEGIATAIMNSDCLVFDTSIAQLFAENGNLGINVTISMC
B5: Carbonic anhydrase-related protein (Homo sapiens), P35219 (parent)
chain: MADLSFIEDTVAFPEKEEDEEEEEEGVEWGYEEGVEWGLVFPDANGEYQSPINLNSREARYDPSLLDVRLSPNYVVCRDCEVTNDGHTIQVILKSKSVLSGGPLPQGHEFELYEVRFHWGRENQRGSEHTVNFKAFPMELHLIHWNSTLFGSIDEAVGKPHGIAIIALFVQIGKEHVGLKAVTEILQDIQYKGKSKTIPCFNPNTLLPDPLLRDYWVYEGSLTIPPCSEGVTWILFRYPLTISQLQIEEFRRLRTHVKGAELVEGCDGILGDNFRPTQPLSDRVIRAAFQ
partner: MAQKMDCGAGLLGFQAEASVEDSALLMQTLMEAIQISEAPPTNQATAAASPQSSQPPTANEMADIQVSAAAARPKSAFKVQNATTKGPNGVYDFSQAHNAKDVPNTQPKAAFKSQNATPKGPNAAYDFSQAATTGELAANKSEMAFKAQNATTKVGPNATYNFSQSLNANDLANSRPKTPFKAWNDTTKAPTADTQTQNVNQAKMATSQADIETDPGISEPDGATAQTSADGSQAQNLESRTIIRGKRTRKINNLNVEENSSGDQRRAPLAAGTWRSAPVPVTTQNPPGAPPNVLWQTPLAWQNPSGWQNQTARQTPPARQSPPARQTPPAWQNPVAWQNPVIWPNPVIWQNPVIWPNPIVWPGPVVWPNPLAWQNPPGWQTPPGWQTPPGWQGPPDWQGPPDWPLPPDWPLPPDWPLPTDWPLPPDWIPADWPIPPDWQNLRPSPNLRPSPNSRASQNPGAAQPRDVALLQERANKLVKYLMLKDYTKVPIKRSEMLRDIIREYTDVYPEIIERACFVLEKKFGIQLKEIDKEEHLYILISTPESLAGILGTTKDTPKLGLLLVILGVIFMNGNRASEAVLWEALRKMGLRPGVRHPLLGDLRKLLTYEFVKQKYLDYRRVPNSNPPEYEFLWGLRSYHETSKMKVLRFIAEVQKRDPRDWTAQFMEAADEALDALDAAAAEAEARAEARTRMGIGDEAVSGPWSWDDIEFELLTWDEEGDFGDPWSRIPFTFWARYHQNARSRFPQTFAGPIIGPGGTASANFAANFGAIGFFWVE
B6: B-cell lymphoma/leukemia 10 (Homo sapiens), O95999 (parent)
chain: MEPTAPSLTEEDLTEVKKDALENLRVYLCEKIIAERHFDHLRAKKILSREDTEEISCRTSSRKRAGKLLDYLQENPKGLDTLVESIRREKTQNFLIQKITDEVLKLRNIKLEHLKGLKCSSCEPFPDGATNNLSRSNSDESNFSEKLRASTVMYHPEGESSTTPFFSTNSSLNLPVLEVGRTENTIFSSTTLPRPGDPGAPPLPPDLQLEEEGTCANSSEMFLPLRSRTVSRQ
partner: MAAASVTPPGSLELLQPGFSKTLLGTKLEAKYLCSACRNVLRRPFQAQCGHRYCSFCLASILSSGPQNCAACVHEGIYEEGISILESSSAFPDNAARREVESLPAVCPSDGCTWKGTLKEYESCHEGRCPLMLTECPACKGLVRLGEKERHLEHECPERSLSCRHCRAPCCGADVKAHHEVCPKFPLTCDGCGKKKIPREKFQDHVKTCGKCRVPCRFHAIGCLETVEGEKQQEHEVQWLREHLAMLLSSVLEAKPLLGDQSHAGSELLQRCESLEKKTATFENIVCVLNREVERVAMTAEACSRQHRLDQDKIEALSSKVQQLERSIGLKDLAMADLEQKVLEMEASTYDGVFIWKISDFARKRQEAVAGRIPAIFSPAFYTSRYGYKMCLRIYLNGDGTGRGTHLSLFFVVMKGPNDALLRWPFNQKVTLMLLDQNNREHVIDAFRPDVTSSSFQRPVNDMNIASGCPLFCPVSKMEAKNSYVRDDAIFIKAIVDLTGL
B7: PiggyBac transposable element-derived protein 1 (Homo sapiens), Q96JS3 (parent)
chain: MYEALPGPAPENEDGLVKVKEEDPTWEQVCNSQEGSSHTQEICRLRFRHFCYQEAHGPQEALAQLRELCHQWLRPEMHTKEQIMELLVLEQFLTILPKELQPCVKTYPLESGEEAVTVLENLETGSGDTGQQASVYIQGQDMHPMVAEYQGVSLECQSLQLLPGITTLKCEPPQRPQGNPQEVSGPVPHGSAHLQEKNPRDKAVVPVFNPVRSQTLVKTEEETAQAVAAEKWSHLSLTRRNLCGNSAQETVMSLSPMTEEIVTKDRLFKAKQETSEEMEQSGEASGKPNRECAPQIPCSTPIATERTVAHLNTLKDRHPGDLWARMHISSLEYAAGDITRKGRKKDKARVSELLQGLSFSGDSDVEKDNEPEIQPAQKKLKVSCFPEKSWTKRDIKPNFPSWSALDSGLLNLKSEKLNPVELFELFFDDETFNLIVNETNNYASQKNVSLEVTVQEMRCVFGVLLLSGFMRHPRREMYWEVSDTDQNLVRDAIRRDRFELIFSNLHFADNGHLDQKDKFTKLRPLIKQMNKNFLLYAPLEEYYCFDKSMCECFDSDQFLNGKPIRIGYKIWCGTTTQGYLVWFEPYQEESTMKVDEDPDLGLGGNLVMNFADVLLERGQYPYHLCFDSFFTSVKLLSALKKKGVRATGTIRENRTEKCPLMNVEHMKKMKRGYFDFRIEENNEIILCRWYGDGIISLCSNAVGIEPVNEVSCCDADNEEIPQISQPSIVKVYDECKEGVAKMDQIISKYRVRIRSKKWYSILVSYMIDVAMNNAWQLHRACNPGASLDPLDFRRFVAHFYLEHNAHLSD
partner: B6 partner

Variants of: B1
Details: with MTUS2, Q5JR59-3
MTUS2, Q5JR59-3, sequence (Q5JR59 other isoform, or with tags, fused parts or gaps): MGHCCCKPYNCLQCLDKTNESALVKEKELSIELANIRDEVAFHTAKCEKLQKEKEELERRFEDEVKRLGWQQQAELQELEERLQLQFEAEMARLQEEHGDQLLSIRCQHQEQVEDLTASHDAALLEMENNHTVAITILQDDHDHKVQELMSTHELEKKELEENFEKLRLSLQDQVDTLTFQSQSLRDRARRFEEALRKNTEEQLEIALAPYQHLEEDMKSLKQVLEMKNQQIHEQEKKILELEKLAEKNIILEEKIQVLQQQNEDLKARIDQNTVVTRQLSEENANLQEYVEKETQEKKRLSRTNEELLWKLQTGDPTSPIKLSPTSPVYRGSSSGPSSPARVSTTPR

Variant | effect of a mutation on the interaction
Q2R | with no effect
Q2L | with no effect
R44H | with no effect

Variants of: B2
Details: with MIF4GD

Variant | effect of a mutation on the interaction
L69P | disrupting interaction strength
F94S | disrupting interaction strength
V36M | disrupting interaction strength

Variants of: B3
Details: with hsp7c_human HSPA8, P11142
hsp7c_human HSPA8, P11142, sequence (P11142 whole entry, looked up): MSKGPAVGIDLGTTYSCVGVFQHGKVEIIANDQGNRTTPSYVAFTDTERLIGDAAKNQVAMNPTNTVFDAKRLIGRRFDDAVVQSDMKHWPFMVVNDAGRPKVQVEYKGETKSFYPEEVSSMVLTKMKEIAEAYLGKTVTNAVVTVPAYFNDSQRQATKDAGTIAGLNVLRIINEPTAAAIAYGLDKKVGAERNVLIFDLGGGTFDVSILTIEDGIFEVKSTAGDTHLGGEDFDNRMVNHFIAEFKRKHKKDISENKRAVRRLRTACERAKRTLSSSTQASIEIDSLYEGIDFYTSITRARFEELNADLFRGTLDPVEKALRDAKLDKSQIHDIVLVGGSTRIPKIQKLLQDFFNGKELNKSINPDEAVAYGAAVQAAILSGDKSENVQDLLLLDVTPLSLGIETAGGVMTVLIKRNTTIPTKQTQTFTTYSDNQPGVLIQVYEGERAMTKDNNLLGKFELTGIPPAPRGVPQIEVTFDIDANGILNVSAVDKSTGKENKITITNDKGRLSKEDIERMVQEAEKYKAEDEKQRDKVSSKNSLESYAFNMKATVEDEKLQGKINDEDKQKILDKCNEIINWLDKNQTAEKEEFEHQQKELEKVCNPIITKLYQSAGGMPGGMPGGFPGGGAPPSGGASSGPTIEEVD

Variant | effect of a mutation on the interaction
T53A | with no effect

Variants of: B4
Details: with SIAH1, Q8IUQ4-2

Variant | effect of a mutation on the interaction
L107V | with no effect

Variants of: B5
Details: with magd1_human MAGED1, Q9Y5V3

Variant | effect of a mutation on the interaction
S100P | disrupting interaction strength

Variants of: B6
Details: with traf2_human TRAF2, Q12933

Variant | effect of a mutation on the interaction
A5S | with no effect

Variants of: B7
Details: with traf2_human TRAF2, Q12933

Variant | effect of a mutation on the interaction
Q248E | with no effect
I678V | with no effect
P256L | with no effect
